Blank lines part the entries; values can stand above or below the substance they belong to.
What was measured:
[1] = target: D3H44 light chain Q124E_Q160E_T180E_C214S; assay: LCCA, SPR tag readout, L1:L2 DNA 1:3 normalized to 1:1; competitor m20
[2] = target: D3H44 light chain Q124E_Q160E_T180E_C214S; assay: LCCA, SPR tag readout, L1:L2 DNA 1:9 normalized to 1:1; competitor m20
[3] = target: D3H44 light chain P44F_S131K; assay: LCCA, SPR tag readout, L1:L2 DNA 1:9 normalized to 1:1; competitor m22
[4] = target: D3H44 light chain P44F_S131K; assay: LCCA, SPR tag readout, L1:L2 DNA 1:3 normalized to 1:1; competitor m22
[5] = target: D3H44 light chain T178R with N-terminal HA or FLAG tag; assay: LCCA (SPR tag readout), L1:L2 DNA 1:3, normalized to 1:1; competing light chain m13
[6] = target: D3H44 light chain Q38R_S131K; assay: LCCA, SPR tag readout, L1:L2 DNA 1:9 normalized to 1:1; competitor m19
[7] = target: D3H44 light chain Q38R_S131K; assay: LCCA, SPR tag readout, L1:L2 DNA 1:3 normalized to 1:1; competitor m19
[8] = target: D3H44 light chain Q38E_Q124E_Q160E_T180E; assay: LCCA, SPR tag readout, L1:L2 DNA 1:3 normalized to 1:1; competitor m21
[9] = target: D3H44 light chain Q38E_Q124E_Q160E_T180E; assay: LCCA, SPR tag readout, L1:L2 DNA 1:9 normalized to 1:1; competitor m21
[10] = target: D3H44 light chain S131K (Kabat), N-terminal HA or FLAG tag; assay: LCCA co-expression, competing light chain m37, L1:L2 DNA 1:3 normalized to 1:1, SPR tag read-out
[11] = target: D3H44 light chain Q124E_T180E (Kabat), N-terminal HA or FLAG tag; assay: LCCA co-expression, competing light chain m36, L1:L2 DNA 1:3 normalized to 1:1, SPR tag read-out
[12] = target: tissue factor (TF) antigen (UniProt P13726); assay: SPR, Fab captured on anti-penta-His, TF as analyte, 1:1 fit; batch C
[13] = target: tissue factor (TF) antigen (UniProt P13726); assay: SPR, Fab captured on anti-penta-His, TF as analyte; against wild-type D3H44 Fab; batch C
[14] = target: tissue factor (TF) antigen (UniProt P13726); assay: SPR as for KD; reference: wild-type D3H44 Fab; batch C (+)
[15] = target: tissue factor (TF) antigen (UniProt P13726); assay: SPR, ProteOn XPR36; His-tagged Fab captured on anti-penta-His, TF injected; 1:1 fit; batch C (+)
[16] = target: tissue factor (TF) antigen (UniProt P13726); assay: SPR (ProteOn), Fab captured by anti-penta-His, TF as analyte, 1:1 fit; estimated value taken from the Fab differing only in L chain tag
[17] = target: tissue factor (TF) antigen (UniProt P13726); assay: SPR (ProteOn), against wild-type D3H44 Fab; estimated value taken from the Fab differing only in L chain tag
[18] = target: tissue factor (TF) antigen (UniProt P13726); assay: SPR, Fab captured on anti-penta-His, TF as analyte, 1:1 fit; estimated value from Fab differing only in L chain tag
[19] = target: tissue factor (TF) antigen (UniProt P13726); assay: SPR (ProteOn XPR36): His-tagged Fab captured on anti-penta-His surface, TF as analyte, 1:1 fit; value estimated (*) from the Fab differing only in the L chain tag
[20] = target: tissue factor (TF) antigen (UniProt P13726); assay: SPR (ProteOn XPR36), Fab captured on anti-penta-His, TF injected, 1:1 fit
[21] = target: tissue factor (TF) antigen (UniProt P13726); assay: SPR, against wild-type D3H44 Fab
[22] = target: tissue factor (TF) antigen (UniProt P13726); assay: SPR, Fab captured on anti-penta-His, TF as analyte, 1:1 fit; estimated (*) from Fab differing only in L chain tag
[23] = target: tissue factor (TF) antigen (UniProt P13726); assay: vs wild-type D3H44 Fab (estimated wt KD […]); SPR; estimated (*) from Fab differing only in L chain tag

Substance: D3H44 Fab heavy chain Q39E_K145T_Q179E
H1L1:H1L2 normalized median ratio [6]: 90%
H1L1:H1L2 normalized median scalar value ln(r1/f1) [6]: 2.16
H1L1:H1L2 normalized median ratio [7]: 93%
H1L1:H1L2 normalized median ratio [8]: 7%
H1L1:H1L2 normalized median ratio [9]: 10%

Substance: D3H44 Fab heavy chain Q39R_H172R_S186R
H2L2:H2L1 normalized median ratio [6]: 7%
H2L2:H2L1 normalized median ratio [7]: 6%
H2L2:H2L1 normalized median ratio [8]: 94%
H2L2:H2L1 normalized median ratio [9]: 93%

Substance: D3H44 Fab heterodimer, H1 S186K / L1 Q124E_T178E (H1L1 Fab of LCCA Set # 9850 and 9849)
Kd [12]: 0.15 nM
change in median KD compared to wild type, -(log(KD design)-log(KD wt)) [13]: 0.01

Substance: D3H44 Fab heterodimer, H1 S186R / L1 Q124E_Q160E_T178E (H1L1 Fab of LCCA Set # 9867 and 9868)
Kd [12]: 0.14 nM
change in median KD compared to wild type, -(log(KD design)-log(KD wt)) [13]: 0.06

Substance: D3H44 Fab heterodimer, H1 S186R / L1 Q124E_T178E_T180E (H1L1 Fab of LCCA Set # 9889 and 9890)
Kd [12]: 0.05 nM
change in median KD compared to wild type, -(log(KD design)-log(KD wt)) [13]: 0.49

Substance: D3H44 Fab heterodimer, H1 S186R / L1 S131E (H1L1 Fab of LCCA Set # 9981 and 9985)
Kd [12]: 0.12 nM
change in median KD compared to wild type, -(log(KD design)-log(KD wt)) [13]: 0.1

Substance: D3H44 Fab heterodimer, H1L1 of LCCA set 9645 (H: L143E_K145T_Q179E; L: Q124K_T178R)
Kd [16]: 0.14 nM
Change in KD with respect to wild type (-(log(KD design) - log(KD wt))) [17]: 0.05

Substance: D3H44 Fab heterodimer, H1L1 of LCCA set 9651 (H: L143E_K145T_Q179E; L: Q124R_Q160K_T178R)
Kd [16]: 0.15 nM
Change in KD with respect to wild type (-(log(KD design) - log(KD wt))) [17]: 0.02

Substance: D3H44 Fab heterodimer, H1L1 of LCCA set 9657 (H: L143E_K145T_Q179E; L: Q124R_T178K)
Kd [16]: 0.19 nM
Change in KD with respect to wild type (-(log(KD design) - log(KD wt))) [17]: -0.08

Substance: D3H44 Fab heterodimer, H1L1 of LCCA set 9683 (H: L143E_K145T_Q179E; L: T178R)
Kd [16]: 0.3 nM
Change in KD with respect to wild type (-(log(KD design) - log(KD wt))) [17]: -0.28

Substance: D3H44 Fab heterodimer, H L124E_L143E_K145T / L Q124K_V133G_S176R_T178K
Change in KD with respect to wild type (-(log(KD design) - log(KD wt))) [18]: -0.12
Kd [18]: 0.21 nM

Substance: D3H44 H1L1 Fab heterodimer of LCCA set 9079 (H1 K145T_Q179E; L1 S131K)
Change in median values of KD of h1|1 Fab heterodimer compared to wild type (-(log(KD design)-log(KD wt))) [19]: -0.01 log units
Kd [19]: 0.16 nM

Substance: D3H44 H1L1 Fab heterodimer of LCCA set 9635 (H1 L143E_K145T_Q179D; L1 Q124R_T178R)
Change in median values of KD of h1|1 Fab heterodimer compared to wild type (-(log(KD design)-log(KD wt))) [19]: 0.04 log units
Kd [19]: 0.14 nM

Substance: H1L1 Fab heterodimer of LCCA Set # 9074 (D3H44 Fab; H1 H172R_Q179K, L1 Q124E_Q160E_T180E)
Kd [20]: 0.16 nM
Change in median values of KD of h1l1 Fab heterodimer compared to wild type (-(log(KD design)-log(KD wt))) [21]: -0.01

Substance: H1L1 Fab heterodimer of LCCA sets 9663 and 9666 (D3H44 Fab, H1 L143E_K145T_Q179E, L1 Q124R_T178R; L chain tag differs from the measured Fab)
Kd [22]: 0.27 nM
change in median KD compared to wild type, -(log(KD design)-log(KD wt)) [23]: -0.23

Now from value to substance:

H1L1:H1L2 normalized median ratio [1]: 6%
H2L2:H2L1 normalized median ratio [1]: 6%
H1L1:H1L2 normalized median ratio [2]: 8%
H2L2:H2L1 normalized median ratio [2]: 8%
H1L1:H1L2 normalized median ratio [3]: 92%
H1L1:H1L2 normalized median scalar value ln(r1/f1) [3]: 2.42
H2L2:H2L1 normalized median ratio [3]: 92%
H1L1:H1L2 normalized median ratio [4]: 94%
H1L1:H1L2 normalized median scalar value ln(r1/f1) [4]: 2.78
H2L2:H2L1 normalized median ratio [4]: 94%
Substance: D3H44 Fab heavy chain L45P_K145T_H172R_Q179E

H1L1:H1L2 normalized median ratio [5]: 79%
H1L1:H1L2 normalized median scalar value ln(r1/f1) [5]: 1.31
Substance: D3H44 Fab heavy chain L143D_K145T_Q179E with C-terminal ABD2-His6 tag

H1L1:H1L2 normalized median ratio [6]: 89%
H1L1:H1L2 normalized median scalar value ln(r1/f1) [6]: 2.09
H1L1:H1L2 normalized median ratio [7]: 93%
H1L1:H1L2 normalized median scalar value ln(r1/f1) [7]: 2.53
H1L1:H1L2 normalized median ratio [8]: 7%
H1L1:H1L2 normalized median ratio [9]: 11%
Substance: D3H44 Fab heavy chain Q39E_K145T_H172R_Q179E

H2L2:H2L1 normalized median ratio [6]: 4%
H2L2:H2L1 normalized median ratio [7]: 4%
H2L2:H2L1 normalized median ratio [8]: 96%
H2L2:H2L1 normalized median ratio [9]: 96%
Substance: D3H44 Fab heavy chain Q39R_S186R

H2L2:H2L1 normalized median ratio [10]: 4 of 100
H2L2:H2L1 normalized median ratio [11]: 96 of 100
Substance: D3H44 Fab heavy chain S186R (Kabat), C-terminal ABD2-His6 tag

Kd [12]: 0.16 nM
change in median KD compared to wild type, -(log(KD design)-log(KD wt)) [13]: 0
Substance: D3H44 Fab heterodimer, H1 Q179R / L1 S131E (H1L1 Fab of LCCA Set # 9980)

change in median KD compared to wild type, -(log(KD design)-log(KD wt)) [14]: -0.02
Kd [15]: 0.17 nM
Substance: D3H44 Fab heterodimer, H1L1 of LCCA Sets # 9807 and 9808 (H1 Q179R; L1 Q124E_S176L_T180E)

change in median KD compared to wild type, -(log(KD design)-log(KD wt)) [14]: 0.15
Kd [15]: 0.11 nM
Substance: D3H44 Fab heterodimer, H1L1 of LCCA Sets # 9881 and 9882 (H1 S186R; L1 Q124E_S131T_T178F_T180E)

Kd [16]: 0.15 nM
Change in KD with respect to wild type (-(log(KD design) - log(KD wt))) [17]: 0.02
Substance: D3H44 Fab heterodimer, H1L1 of LCCA set 9131 (H: L124E_K145M_Q179E; L: S131K_V133G_S176R)

Change in KD with respect to wild type (-(log(KD design) - log(KD wt))) [18]: -0.07
Kd [18]: 0.18 nM
Substance: D3H44 Fab heterodimer, H L124E_L143E_K145T / L Q124K_V133G_S176R_T178R

Kd [20]: 0.13 nM
Change in median values of KD of h1l1 Fab heterodimer compared to wild type (-(log(KD design)-log(KD wt))) [21]: 0.07
Substance: H1L1 Fab heterodimer of LCCA Set # 9068 (D3H44 Fab; H1 F174G, L1 S131T_S176F_T178F)

Kd [20]: 0.16 nM
Change in median values of KD of h1l1 Fab heterodimer compared to wild type (-(log(KD design)-log(KD wt))) [21]: 0
Substance: H1L1 Fab heterodimer of LCCA Set # 9070 (D3H44 Fab; H1 F174G, L1 S131T_S176F_T178Y)

Kd [20]: 0.14 nM
Change in median values of KD of h1l1 Fab heterodimer compared to wild type (-(log(KD design)-log(KD wt))) [21]: 0.04
Substance: H1L1 Fab heterodimer of LCCA Set # 9073 (D3H44 Fab; H1 F174V, L1 S131T_S176F_T178Y)

Kd [20]: 0.3 nM
Change in median values of KD of h1l1 Fab heterodimer compared to wild type (-(log(KD design)-log(KD wt))) [21]: -0.28
Substance: H1L1 Fab heterodimer of LCCA Set # 9569 (D3H44 Fab; H1 L124W_L143F, L1 V133A_S176T_T178L)

Kd [22]: 0.06 nM
change in median KD compared to wild type, -(log(KD design)-log(KD wt)) [23]: 0.39
Substance: H1L1 Fab heterodimer of LCCA set 9623 (D3H44 Fab, H1 L143E_K145T_Q179D, L1 Q124R_Q160K_T178R; L chain tag differs from the measured Fab)

Kd [22]: 0.15 nM
change in median KD compared to wild type, -(log(KD design)-log(KD wt)) [23]: 0.02
Substance: H1L1 Fab heterodimer of LCCA set 9651 (D3H44 Fab, H1 L143E_K145T_Q179E, L1 Q124R_Q160K_T178R; L chain tag differs from the measured Fab)

Kd [22]: 0.16 nM
change in median KD compared to wild type, -(log(KD design)-log(KD wt)) [23]: 0
Substance: H1L1 Fab heterodimer of LCCA sets 9140, 9142, 9144 and 9146 (D3H44 Fab, H1 L124E_K145T_Q179E, L1 S131K_V133G_S176R; L chain tag differs from the measured Fab)

Reference: patent US11306156
